The text below walks through data of article PMC9547791 (Acta Neuropathologica, 2022).

The assay concerns the target T1, STI1 TPR2A domain (residues 217-352) (mouse, UniProt Q60864 217-352).
T1 construct: STI1, mouse, TPR2A domain, residues 217-352; The tag is TEV-cleavable
Particulars: both partners purified.

T1 sequence (Q60864 217-352): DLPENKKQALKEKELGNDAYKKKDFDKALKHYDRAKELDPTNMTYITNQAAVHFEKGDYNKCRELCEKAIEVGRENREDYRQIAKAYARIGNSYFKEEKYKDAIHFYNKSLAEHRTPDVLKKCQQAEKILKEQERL

B1: Hsp90 pentapeptide (MEEVD), C-terminus of Hsp90 (peptide)
peptide: MEEVD
notes: pentapeptide motif of the C-terminus of Hsp90; also called Hsp90 peptide
Take B1: the binding result was “binds”.
